In the supplement of paper PMC10567573:

B1: RSPH3 (parent)
chain: MTVKPAKAASLARNLAKRRRTYLG

Variants of: B1
Experiment: protein stability index of a GFP-peptide fusion (GPS, HEK-293T) (PSI 1-6); higher = more stable
Conditions: c terminus: a fixed tail appended
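Further: lentivirally expressed fusions sorted by FACS into six bins by GFP to DsRed ratio, PSI derived from sequencing read proportions per bin multiplied by bin number.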

Protein stability index of substitutions, site by site:
M1: S 3.02 | W 2.31 | Y 2.55
T2: A 2.69 | C 2.16 | D 2.88 | E 2.98 | F 1.95 | G 3.28 | H 3.44 | I 2.45 | K 2.81 | L 2.17 | M 2.34 | N 3.75 | P 3.41 | Q 2.61 | R 2.74 | S 2.96 | V 2.5 | W 1.58 | Y 2.36
V3: A 2.85 | C 3.73 | D 3.02 | E 3.22 | F 3.79 | H 3.23 | I 3.59 | K 3.29 | L 2.75 | M 2.31 | N 3.22 | R 2.98 | S 2.62 | T 3.5 | Y 2.68
K4: A 2 | C 2.8 | D 2.97 | E 2.1 | F 2.34 | H 3.7 | I 1.87 | L 2.13 | M 3.46 | N 2.69 | P 2.94 | Q 3.95 | S 3.36 | T 3.38 | V 2.6 | W 2.25 | Y 2.58
P5: A 2.93 | C 2.05 | D 3.8 | E 2.52 | F 1.52 | G 2.75 | H 2.91 | I 1.73 | K 2.92 | L 3.36 | M 2.92 | N 3.24 | Q 2.63 | R 2.48 | S 2.56 | T 3.29 | V 2.69 | W 2.48 | Y 2.14
A6: C 2.72 | D 1.79 | E 3.24 | F 3.04 | G 3.13 | H 3.38 | I 2.43 | K 2.67 | L 1.63 | M 2.27 | N 2.88 | P 3.92 | Q 3.58 | R 2.19 | S 3 | T 2.99 | V 2.89 | W 1.91 | Y 2.93
K7: A 3.46 | C 2.56 | D 3.25 | E 3.59 | F 2.2 | G 3.13 | H 3.82 | I 2.46 | L 3.62 | M 2.93 | N 3.21 | P 3.18 | Q 3.88 | R 2.96 | S 2.66 | T 3.06 | V 2.44 | W 3.15 | Y 2.23
A8: C 2.52 | D 3.43 | E 3.25 | F 2.03 | G 2.4 | H 2.68 | I 2.17 | K 3.23 | L 2.65 | M 2.62 | N 2.58 | P 2.04 | Q 2.5 | R 2.3 | S 2.55 | T 2.87 | V 2.57 | W 2.46 | Y 2.04
A9: C 2.73 | D 2.9 | E 3.65 | F 2.62 | G 2.71 | H 3.37 | I 1.79 | K 2.64 | L 1.79 | M 2.2 | N 3.58 | P 3.03 | Q 2.77 | R 2.42 | S 2.95 | T 3.11 | V 3.28 | W 1.9 | Y 3.04
S10: A 2.86 | C 2.01 | D 2.96 | E 2.74 | F 2.35 | G 2.88 | H 3.28 | I 2.55 | K 2.1 | L 3.35 | M 2.02 | N 2.99 | P 3.1 | R 3.92 | T 3.41 | V 3.34 | W 2.47 | Y 2.03
